Data from paper PMC9482650, “Quantitative fragmentomics allow affinity mapping of interactomes” (Nature Communications, 2022).

T1: NHERF3_4, Q5T2W1
T1 sequence (Q5T2W1 373-468, limits assumed, looked up): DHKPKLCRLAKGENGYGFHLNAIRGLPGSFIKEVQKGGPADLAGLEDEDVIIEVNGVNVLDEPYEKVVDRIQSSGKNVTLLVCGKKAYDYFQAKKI

T2: MPDZ_12, O75970
T2 sequence (O75970 1857-1958, limits assumed, looked up): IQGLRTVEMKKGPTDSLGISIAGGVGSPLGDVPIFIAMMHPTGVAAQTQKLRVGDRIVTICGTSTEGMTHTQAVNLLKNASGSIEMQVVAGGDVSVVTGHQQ

T3: PARD3B_1, Q8TEW8
T3 sequence (Q8TEW8 196-299, limits assumed, looked up): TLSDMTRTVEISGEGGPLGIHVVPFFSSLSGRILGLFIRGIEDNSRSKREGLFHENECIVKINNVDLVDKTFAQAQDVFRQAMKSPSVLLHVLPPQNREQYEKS

T4: DLG3_3, Q92796
T4 sequence (Q92796 374-475, limits assumed, looked up): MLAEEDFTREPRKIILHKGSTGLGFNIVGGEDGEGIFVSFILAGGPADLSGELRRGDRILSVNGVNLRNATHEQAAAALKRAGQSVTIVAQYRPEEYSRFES

T5: DFNB31_2, Q9P202
T5 sequence (Q9P202 274-371, limits assumed, looked up): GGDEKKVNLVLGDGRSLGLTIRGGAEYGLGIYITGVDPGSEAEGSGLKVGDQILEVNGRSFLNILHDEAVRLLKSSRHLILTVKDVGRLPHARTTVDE

T6: DFNB31_3, Q9P202
T6 sequence (Q9P202 811-907, limits assumed, looked up): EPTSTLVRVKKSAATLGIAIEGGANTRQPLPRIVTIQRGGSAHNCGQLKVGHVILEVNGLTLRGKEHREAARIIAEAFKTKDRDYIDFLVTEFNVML

T7: GRIP1_5, Q9Y3R0
T7 sequence (Q9Y3R0 568-668, limits assumed, looked up): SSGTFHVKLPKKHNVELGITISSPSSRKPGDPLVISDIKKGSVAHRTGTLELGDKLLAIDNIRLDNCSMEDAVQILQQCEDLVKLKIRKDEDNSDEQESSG

T8: PDZD2_2, O15018
T8 sequence (O15018 329-429, limits assumed, looked up): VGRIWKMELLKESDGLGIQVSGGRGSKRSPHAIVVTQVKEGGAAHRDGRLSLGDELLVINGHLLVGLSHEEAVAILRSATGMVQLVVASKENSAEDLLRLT

T9: RAPGEF6, Q8TEU7
T9 sequence (Q8TEU7 525-625, limits assumed, looked up): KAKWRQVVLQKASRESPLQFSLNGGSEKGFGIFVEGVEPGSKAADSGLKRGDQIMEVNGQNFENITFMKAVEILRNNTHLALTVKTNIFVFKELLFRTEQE

T10: LIN7B, Q9HAP6
T10 sequence (Q9HAP6 88-185, limits assumed, looked up): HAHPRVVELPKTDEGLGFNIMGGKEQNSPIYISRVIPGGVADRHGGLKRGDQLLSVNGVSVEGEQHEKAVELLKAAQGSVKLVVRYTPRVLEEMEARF

T11: LRRC7, Q96NW7
T11 sequence (Q96NW7 1440-1537, limits assumed, looked up): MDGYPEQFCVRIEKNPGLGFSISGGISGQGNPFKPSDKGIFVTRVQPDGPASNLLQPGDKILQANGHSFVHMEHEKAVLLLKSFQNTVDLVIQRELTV

T12: MPP2, Q14168
T12 sequence (Q14168 180-250, limits assumed, looked up): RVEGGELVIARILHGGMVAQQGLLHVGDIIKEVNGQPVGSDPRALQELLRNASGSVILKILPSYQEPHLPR

T13: GRIP1_4, Q9Y3R0
T13 sequence (Q9Y3R0 467-571, limits assumed, looked up): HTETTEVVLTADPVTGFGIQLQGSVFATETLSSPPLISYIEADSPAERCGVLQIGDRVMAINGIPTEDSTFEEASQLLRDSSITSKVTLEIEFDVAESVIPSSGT


What follows are binders tested against DLG1_1, Q12959 (assay: holdup assay). Settings: plain residues with an end cap or a label only (N-terminal biotin on a linker: ado-ado).
Set-up: key: below the threshold = too weak to quantify, mostly under pKd 3.1 to 4

Row | Binder | pKd
1 | SRPTKGPTLL [PLEKHH2, Q8IVE3] | 3.72
2 | LTAQEQPVYI [APBA1, Q02410] | below the threshold

What follows are binders tested against SCRIB_3, Q14160 (assay: holdup assay). Settings: plain residues with an end cap or a label only (N-terminal biotin on a linker: ado-ado).
Set-up: key: below the threshold = too weak to quantify, mostly under pKd 3.1 to 4

Sequence of SCRIB_3, Q14160 (Q14160 999-1103): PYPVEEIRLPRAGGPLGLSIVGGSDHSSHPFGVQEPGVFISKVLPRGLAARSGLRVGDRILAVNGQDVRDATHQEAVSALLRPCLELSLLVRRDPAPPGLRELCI

Row | Binder | pKd
3 | SRPTKGPTLL [PLEKHH2, Q8IVE3] | 4.41
4 | LTAQEQPVYI [APBA1, Q02410] | below the threshold

The binders below were run against T1, NHERF3_4, Q5T2W1 (assay: holdup assay). Settings: plain residues with an end cap or a label only (N-terminal biotin on a linker: ado-ado).
Set-up: key: below the threshold = too weak to quantify, mostly under pKd 3.1 to 4

Row | Binder | pKd
5 | SRPTKGPTLL [PLEKHH2, Q8IVE3] | 3.65
6 | LTAQEQPVYI [APBA1, Q02410] | below the threshold

Each binder was assayed against TJP2_1, Q9UDY2 (assay: holdup assay). Settings: plain residues with an end cap or a label only (N-terminal biotin on a linker: ado-ado).
Set-up: key: below the threshold = too weak to quantify, mostly under pKd 3.1 to 4

Sequence of TJP2_1, Q9UDY2 (Q9UDY2 24-128): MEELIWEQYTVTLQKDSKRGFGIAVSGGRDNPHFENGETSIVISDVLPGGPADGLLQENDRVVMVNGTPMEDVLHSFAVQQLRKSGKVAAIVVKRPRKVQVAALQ

Row | Binder | pKd
7 | SRPTKGPTLL [PLEKHH2, Q8IVE3] | 3.57
8 | LTAQEQPVYI [APBA1, Q02410] | below the threshold

The binders below were run against SCRIB_1, Q14160 (assay: holdup assay). Settings: plain residues with an end cap or a label only (N-terminal biotin on a linker: ado-ado).
Set-up: key: below the threshold = too weak to quantify, mostly under pKd 3.1 to 4

Sequence of SCRIB_1, Q14160 (Q14160 718-814): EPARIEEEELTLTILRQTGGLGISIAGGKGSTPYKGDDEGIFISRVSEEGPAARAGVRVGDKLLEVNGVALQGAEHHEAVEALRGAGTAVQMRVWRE

Row | Binder | pKd
9 | SRPTKGPTLL [PLEKHH2, Q8IVE3] | 3.86
10 | LTAQEQPVYI [APBA1, Q02410] | below the threshold

The binders below were run against Inadl_2, Q8NI35 (assay: holdup assay). Settings: plain residues with an end cap or a label only (N-terminal biotin on a linker: ado-ado).
Set-up: key: below the threshold = too weak to quantify, mostly under pKd 3.1 to 4

Sequence of Inadl_2, Q8NI35 (Q8NI35 238-335): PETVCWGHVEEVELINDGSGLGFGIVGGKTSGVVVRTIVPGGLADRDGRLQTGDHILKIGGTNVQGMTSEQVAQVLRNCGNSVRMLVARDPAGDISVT

Row | Binder | pKd
11 | SRPTKGPTLL [PLEKHH2, Q8IVE3] | below the threshold
12 | LTAQEQPVYI [APBA1, Q02410] | 3.72

What follows are binders tested against SNX27, Q96L92 (assay: holdup assay). Settings: plain residues with an end cap or a label only (N-terminal biotin on a linker: ado-ado).
Set-up: key: below the threshold = too weak to quantify, mostly under pKd 3.1 to 4

Row | Binder | pKd
13 | SRPTKGPTLL [PLEKHH2, Q8IVE3] | 3.76
14 | LTAQEQPVYI [APBA1, Q02410] | below the threshold

What follows are binders tested against T2, MPDZ_12, O75970 (assay: holdup assay). Settings: plain residues with an end cap or a label only (N-terminal biotin on a linker: ado-ado).
Set-up: key: below the threshold = too weak to quantify, mostly under pKd 3.1 to 4

Row | Binder | pKd
15 | SRPTKGPTLL [PLEKHH2, Q8IVE3] | below the threshold
16 | LTAQEQPVYI [APBA1, Q02410] | below the threshold

The binders below were run against T3, PARD3B_1, Q8TEW8 (assay: holdup assay). Settings: plain residues with an end cap or a label only (N-terminal biotin on a linker: ado-ado).
Set-up: key: below the threshold = too weak to quantify, mostly under pKd 3.1 to 4

Row | Binder | pKd
17 | SRPTKGPTLL [PLEKHH2, Q8IVE3] | 4.41
18 | LTAQEQPVYI [APBA1, Q02410] | 5

These binders were tested against T4, DLG3_3, Q92796 (assay: holdup assay). Settings: plain residues with an end cap or a label only (N-terminal biotin on a linker: ado-ado).
Set-up: key: below the threshold = too weak to quantify, mostly under pKd 3.1 to 4

Row | Binder | pKd
19 | SRPTKGPTLL [PLEKHH2, Q8IVE3] | below the threshold
20 | LTAQEQPVYI [APBA1, Q02410] | below the threshold

Each binder was assayed against T5, DFNB31_2, Q9P202 (assay: holdup assay). Settings: plain residues with an end cap or a label only (N-terminal biotin on a linker: ado-ado).
Set-up: key: below the threshold = too weak to quantify, mostly under pKd 3.1 to 4

Row | Binder | pKd
21 | SRPTKGPTLL [PLEKHH2, Q8IVE3] | below the threshold
22 | LTAQEQPVYI [APBA1, Q02410] | below the threshold

Each binder was assayed against MAST2, Q6P0Q8 (assay: holdup assay). Settings: plain residues with an end cap or a label only (N-terminal biotin on a linker: ado-ado).
Set-up: key: below the threshold = too weak to quantify, mostly under pKd 3.1 to 4

Sequence of MAST2, Q6P0Q8 (Q6P0Q8 1099-1202): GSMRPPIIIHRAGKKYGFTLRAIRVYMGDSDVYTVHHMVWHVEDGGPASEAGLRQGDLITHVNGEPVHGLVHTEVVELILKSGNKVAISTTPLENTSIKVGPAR

Row | Binder | pKd
23 | SRPTKGPTLL [PLEKHH2, Q8IVE3] | 5.06
24 | LTAQEQPVYI [APBA1, Q02410] | below the threshold

The binders below were run against T6, DFNB31_3, Q9P202 (assay: holdup assay). Settings: plain residues with an end cap or a label only (N-terminal biotin on a linker: ado-ado).
Set-up: key: below the threshold = too weak to quantify, mostly under pKd 3.1 to 4

Row | Binder | pKd
25 | SRPTKGPTLL [PLEKHH2, Q8IVE3] | 3.5
26 | LTAQEQPVYI [APBA1, Q02410] | 3.5

What follows are binders tested against T7, GRIP1_5, Q9Y3R0 (assay: holdup assay). Settings: plain residues with an end cap or a label only (N-terminal biotin on a linker: ado-ado).
Set-up: key: below the threshold = too weak to quantify, mostly under pKd 3.1 to 4

Row | Binder | pKd
27 | SRPTKGPTLL [PLEKHH2, Q8IVE3] | below the threshold
28 | LTAQEQPVYI [APBA1, Q02410] | below the threshold

These binders were tested against T8, PDZD2_2, O15018 (assay: holdup assay). Settings: plain residues with an end cap or a label only (N-terminal biotin on a linker: ado-ado).
Set-up: key: below the threshold = too weak to quantify, mostly under pKd 3.1 to 4

Row | Binder | pKd
29 | SRPTKGPTLL [PLEKHH2, Q8IVE3] | 3.87
30 | LTAQEQPVYI [APBA1, Q02410] | 4.36

The binders below were run against GRIP2_5, Q9C0E4 (assay: holdup assay). Settings: plain residues with an end cap or a label only (N-terminal biotin on a linker: ado-ado).
Set-up: key: below the threshold = too weak to quantify, mostly under pKd 3.1 to 4

Sequence of GRIP2_5, Q9C0E4 (Q9C0E4 544-642): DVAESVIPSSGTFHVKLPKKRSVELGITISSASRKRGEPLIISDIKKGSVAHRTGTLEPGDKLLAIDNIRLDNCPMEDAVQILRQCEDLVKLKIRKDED

Row | Binder | pKd
31 | SRPTKGPTLL [PLEKHH2, Q8IVE3] | below the threshold
32 | LTAQEQPVYI [APBA1, Q02410] | below the threshold

Each binder was assayed against PDZRN4_1, Q6ZMN7 (assay: holdup assay). Settings: plain residues with an end cap or a label only (N-terminal biotin on a linker: ado-ado).
Set-up: key: below the threshold = too weak to quantify, mostly under pKd 3.1 to 4

Sequence of PDZRN4_1, Q6ZMN7 (Q6ZMN7 213-318): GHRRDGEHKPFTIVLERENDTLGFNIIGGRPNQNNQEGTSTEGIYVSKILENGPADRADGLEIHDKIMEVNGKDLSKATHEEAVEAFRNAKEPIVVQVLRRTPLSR

Row | Binder | pKd
33 | SRPTKGPTLL [PLEKHH2, Q8IVE3] | below the threshold
34 | LTAQEQPVYI [APBA1, Q02410] | below the threshold

What follows are binders tested against T9, RAPGEF6, Q8TEU7 (assay: holdup assay). Settings: plain residues with an end cap or a label only (N-terminal biotin on a linker: ado-ado).
Set-up: key: below the threshold = too weak to quantify, mostly under pKd 3.1 to 4

Row | Binder | pKd
35 | SRPTKGPTLL [PLEKHH2, Q8IVE3] | below the threshold
36 | LTAQEQPVYI [APBA1, Q02410] | below the threshold

The binders below were run against T10, LIN7B, Q9HAP6 (assay: holdup assay). Settings: plain residues with an end cap or a label only (N-terminal biotin on a linker: ado-ado).
Set-up: key: below the threshold = too weak to quantify, mostly under pKd 3.1 to 4

Row | Binder | pKd
37 | SRPTKGPTLL [PLEKHH2, Q8IVE3] | below the threshold
38 | LTAQEQPVYI [APBA1, Q02410] | 3.66

Each binder was assayed against T11, LRRC7, Q96NW7 (assay: holdup assay). Settings: plain residues with an end cap or a label only (N-terminal biotin on a linker: ado-ado).
Set-up: key: below the threshold = too weak to quantify, mostly under pKd 3.1 to 4

Row | Binder | pKd
39 | SRPTKGPTLL [PLEKHH2, Q8IVE3] | below the threshold
40 | LTAQEQPVYI [APBA1, Q02410] | below the threshold

These binders were tested against NHERF2_2, Q15599 (assay: holdup assay). Settings: plain residues with an end cap or a label only (N-terminal biotin on a linker: ado-ado).
Set-up: key: below the threshold = too weak to quantify, mostly under pKd 3.1 to 4

Sequence of NHERF2_2, Q15599 (Q15599 142-238): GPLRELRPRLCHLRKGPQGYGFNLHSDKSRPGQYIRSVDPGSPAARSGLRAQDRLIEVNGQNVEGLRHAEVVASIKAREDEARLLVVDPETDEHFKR

Row | Binder | pKd
41 | SRPTKGPTLL [PLEKHH2, Q8IVE3] | below the threshold
42 | LTAQEQPVYI [APBA1, Q02410] | below the threshold

These binders were tested against T12, MPP2, Q14168 (assay: holdup assay). Settings: plain residues with an end cap or a label only (N-terminal biotin on a linker: ado-ado).
Set-up: key: below the threshold = too weak to quantify, mostly under pKd 3.1 to 4

Row | Binder | pKd
43 | SRPTKGPTLL [PLEKHH2, Q8IVE3] | below the threshold
44 | LTAQEQPVYI [APBA1, Q02410] | below the threshold

Each binder was assayed against LNX1_3, Q8TBB1 (assay: holdup assay). Settings: plain residues with an end cap or a label only (N-terminal biotin on a linker: ado-ado).
Set-up: key: below the threshold = too weak to quantify, mostly under pKd 3.1 to 4

Sequence of LNX1_3, Q8TBB1 (Q8TBB1 500-596): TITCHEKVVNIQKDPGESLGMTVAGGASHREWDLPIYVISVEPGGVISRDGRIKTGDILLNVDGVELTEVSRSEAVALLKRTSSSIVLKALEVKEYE

Row | Binder | pKd
45 | SRPTKGPTLL [PLEKHH2, Q8IVE3] | below the threshold
46 | LTAQEQPVYI [APBA1, Q02410] | below the threshold

Each binder was assayed against T13, GRIP1_4, Q9Y3R0 (assay: holdup assay). Settings: plain residues with an end cap or a label only (N-terminal biotin on a linker: ado-ado).
Set-up: key: below the threshold = too weak to quantify, mostly under pKd 3.1 to 4

Row | Binder | pKd
47 | SRPTKGPTLL [PLEKHH2, Q8IVE3] | below the threshold
48 | LTAQEQPVYI [APBA1, Q02410] | below the threshold
